From paper PMC11805909, “Structural basis of inhibition of human NaV1.8 by the tarantula venom peptide Protoxin-I” (Nature Communications, 2025)

Target: T1, human NaV1.8 α-subunit (human, UniProt Q9Y5Y9 1-1956, M1713V, N-linked glycosylation modelled at Asn 312, 819, 1312, 1328 and 1336; further sites N284 and N288)
T1 construct: a TEV protease site stands between the N-terminal tags and the channel; No TEV cleavage is described in the purification, so the N-terminal tags were probably still on the protein on the grids; VSDI was not resolved in the maps; also called hNaV1.8; apo-hNaV1.8; source: HEK293 (FreeStyle 293-F), transiently co-transfected with β4; not shown: FLAG, N-terminal, kept
Test: cryo-EM structure; 45 µM ProTx-I incubated 30 min on ice with purified hNaV1.8 in GDN micelles (150 mM NaCl, 25 mM HEPES pH 7.5, 0.006% GDN); excess peptide removed on a 100 kDa MWCO filter; monolayer graphene grids
Details: both partners purified

B1: Protoxin-I (peptide)
peptide: ECRYWLGGCSAGQTCCKHLVCSRRHGWCVWDGTFS
notes: modelled from the NMR ensemble PDB 2M9L; printed residue numbers (R3, W5, L6, S22, R23, W27, V29, W30, D31, G32, F34) count on the peptide; Disulfide-rich (ICK framework); also called ProTx-I; source: bought: Smartox Biotechnology
Question: Does B1 bind?
Answer: binds
